Reference: patent US10119122B2, “Differentiation and expansion of endothelial cells from pluripotent stem cells and the in vitro formation of vasculature like structures” (Academisch Ziekenhuis Leiden, priority 2013, dated 2018)
Entries after “also recorded” stand apart in the source; their conditions may differ.

Experiments:
Assay type in all cases: cell-based, human
[1] = system: control iPSC-derived ECs co-cultured with control iPSC-derived pericytes/mesenchymal cells; assay: 2D endothelial-pericyte co-culture sprouting assay, control ECs; details: for formation of vascular/endothelial sprouts: TGFβ3 1 ng/ml, compared to control condition
Description: (§1) The endothelial capillary-like network formation assay was carried out as previously described but with major modifications (Evensen et al., 2013). These included using both ECs and pericytes derived from human iPSC lines. This is described in more detail elsewhere (Orlova et al., manuscript in preparation). ECs were labelled with the general cytoplasmic labeling dye (PKH-26). For the sprouting assay, 12,000 ECs derived from both control and diseased lines were plated with 50,000 control iPSC-derived pericytes/well on 0.1% gelatin coated 96-well plates in EGM-2 (Lonza, CC-3162). Next day and on the day 4 of the assay, medium was replaced with new EGM-2 media containing tested compounds as indicated in the figure legends. Endothelial-pericyte co-culture was terminated on day 7 of the assay each well immunofluorescently stained for quantification, as follows: co-cultures were fixed with the 4% paraformaldehyde (PFA), permeabilized with the 0.1% TX-100 and blocked with the normal goat serum (Dako). Endothelial sprouts were visualized with the mouse anti-CD31 (Dako, 1:200). In some experiment with the mouse blocking antibodies, rabbit anti-CD31 (Scbt, 1:200) was used instead. Pericytes were visualized with antibodies against SM22 (Sigma, 1:200). The endothelial network was imaged with the BD Pathway 855 system using the 4× or 10× objective and 2×2 (or 3×3) Montage mode. Total area covered by the endothelial sprouts was quantified with the protocol developed within cell image analysis software CellProfiller (Broad Institute). High magnification images were acquired with the SP5 confocal microscope, using 10× and 40× objectives.
A two-dimensional co-culture system was first established in vitro consisting of control iPSC-derived ECs cultured with the control iPSC-derived mesenchymal cells (FIG. 10A). The protocol was optimized and adapted to the BD Pathway 855 imaging system, based on the protocol initially described for the co-culture of HUVECs and vascular SMCs (vSMCs) (Evensen et al., 2013). On day 7 of the co-culture, iPSC-derived EC had organized and formed spouts on the top mesenchymal cells, as evidenced by immunofluorescent staining with the EC-specific CD31 and SMC-specific SM22 markers (FIG. 10B).
(§2) Endothelial cell-pericyte co-culture was performed as described previously (Evensen et al., 2013) but using conditions optimized for iPSC-derived ECs and pericytes as described (Orlova et al., manuscript in preparation). In brief, 12,000 and 50,000 iPSC-derived ECs and pericytes were plated, respectively, in each well of a 96-well plate. Next day the co-cultures were refreshed with the specific treatment conditions indicated. The co-culture was fixed on day 7, and EC sprouts stained with anti-CD31 antibody (1:200, Dako) (as described in Orlova et al., manuscript in preparation). Pericytes were visualized with the anti-SM22 antibody (1:200, Abcam). The BD Pathway 855 system was used for automatic image acquisition, with the 4× objective and 2×2 (or in some cases 3×3) montage mode. CellProfiller (Broad Institute) custom pipeline was used for the image quantification.

[2] = system: HHT1-iPSC-derived ECs co-cultured with control iPSC-derived pericytes; assay: 2D endothelial-pericyte co-culture sprouting assay, HHT1 patient ECs; details: day 7, HHT1-iPSC ECs; for formation of the sprouting network: BMP9 1 ng/ml; for formation of endothelial sprouts: TGFβ3 1 ng/ml
Description: as §1
It was hypothesized that this system might be useful for distinguishing […] versus paracrine effects of endoglin deficiency in HHT1-iPSCs-derived ECs. Therefore, ECs from HHT-iPSC lines in the co-culture assay combined with the pericytes derived from the control iPSCs were examined. Little difference was observed between ECs from HHT1 and control iPSCs in co-culture. ECs from the patient harboring the 1083delAA and IVS 5+2 (T>C) mutation similar endothelial sprout formation as the controls (FIGS. 11A and 11B).
as §2

[3] = system: iPSC-derived pericytes/mesenchymal cells; assay: Contractile smooth muscle marker expression in iPSC-derived pericytes/mesenchymal cells; details: stimulation with TGFb (FIG. 16)
Description: Our differentiation system facilitates simultaneous derivation and expansion of pericytes and ECs from iPSC lines. […] Thus, a renewable source of pericytes/SMCs was created for co-culture with ECs that would in principle be able to simulate endothelial-pericyte interaction in humans.
iPSC-derived pericytes/mesenchymal cells were derived from the CD31− fraction emerging during the endothelial differentiation protocol. CD31− cells were plated on gelatin coated plates in EGM-2 media (Lonza). After 4 days medium was replaced by DMEM+10% FBS supplemented with TGFβ3 (2 ng/ml, Peprotech) and PDGF-BB (4 ng/ml, Peprotech). iPSC-derived pericytes were routinely maintained on gelatin-coated plates in DMEM+10% FBS. Cells were characterized for the expression of pericyte and mesenchymal cell-specific markers by flow cytometry and immunofluorescent staining as describe above.
ECs and pericytes were cultured as described above on gelatin coated coverslips. Cells were fixed with 4% PFA, permeabilized and stained with the following antibodies as described (Orlova et al., Manuscript in preparation): anti-Ve-Cadherin (1:200, CellSignaling), anti-vWF (1:200, Dako), anti-CD31 (1:200, Dako), anti-SM22a (1:200, Abcam), anti-SMA (1:400, Sigma), anti-CNN1 (1:200, Sigma).

hPSCs = assay: Monolayer endothelial differentiation of hPSCs in defined medium, flow cytometry at day 10; details: additional Activin 25 ng/ml on days 0-3 (BVAC vs BVC); range of iPSC lines; data not shown
Source text: hiPSC lines were generated from Fib or BOECs using conditional lentiviral vectors containing the four transcription factors oct4, c-myc, Klf4 and Sox2, and characterized as described previously (Dambrot et al., 2013; Freund et al., 2008; Orlova et al., manuscript in preparation). hiPSCs and hESC (line HES-NL4; (van de Stolpe et al., 2005)) were routinely maintained on growth factor reduced MATRIGEL®-(BD, 354230) coated plates in mTeSR media (StemCell Technologies, 05850) and passaged mechanically. Differentiation was induced three days after passaging colonies by replacing mTeSR medium with the differentiation media based on BPEL (without PVA) (Ng et al., 2008) with timed addition of the following growth factors: 25 ng/ml ActivinA (Miltenyi, 130-095-547), 30 ng/ml BMP4 (Miltenyi, 130-095-549), VEGF165 (R&D Systems, 293-VE) and small molecule inhibitor CHIR99021 (Tocris, 4423). At day 3 and day 7 of differentiation, the media was refreshed with BPEL containing VEGF and 5 μM SB43152 (Tocris, 1614) only.
Cells were dissociated with TrypLE Select and washed once with the FACs buffer with the 10% FBS, followed by the single wash with the FACs buffer. […] In some experiment samples were analyzed with the MACSQuant VYB (Miltenyi). […]

## C[C@H](NC(=O)Cc1cc(F)cc(F)c1)C(=O)N[C@H](C(=O)OC(C)(C)C)c1ccccc1 [DAPT, reference compound]
[1]; 2D co-culture system with DAPT, 46 without DAPT
  number of tip cells: 64

## c1ccc2c(-c3cnn4cc(-c5ccc(N6CCNCC6)cc5)cnc34)ccnc2c1 [LDN1931189, reference compound]
[1]; LDN1931189, inhibition of ALK1/ALK2/ALK3 pathway, day 7
  sprout formation: no effect on sprout formation

B1: BMP9: BMP9 (R&D), ligand for signaling in ECs, circulating vascular quiescence factor (protein, UniProt Q9UK05 320-429, looked up)
Growth/differentiation factor …: SAGAGSHCQKTSLRVNFEDIGWDSWIIAPKEYEAYECKGGCFFPLADDVTPTKHAIVQTLVHLKFPTKVGKACCVPTKLSPISVLYKDDMGVPTLKYHYEGMSVAECGCR
[2]
  formation of the sprouting network: selective inhibitory effect in HHT1-iPSC-derived ECs only
[2]; listed as BMP-9
  formation of the sprouting network: significant inhibition
[1]; BMP9 1 ng/ml, day 7, control iPSC ECs, listed as BMP-9
  formation of the sprouting network: no effect at all

B2: TRC105: anti-endoglin blocking antibody, in clinical trial as an anti-tumor therapy (antibody, chains of the INN, looked up, V domains shown)
VH: EVKLEESGGGLVQPGGSMKLSCAASGFTFSDAWMDWVRQSPEKGLEWVAEIRSKASNHATYYAESVKGRFTISRDDSKSSVYLQMNSLRAEDTGIYYCTRWRRFFDSWGQGTTLTVSS
VL: QIVLSQSPAILSASPGEKVTMTCRASSSVSYMHWYQQKPGSSPKPWIYATSNLASGVPVRFSGSGSGTSYSLTISRVEAEDAATYYCQQWSSNPLTFGAGTKLELK
[1]; TRC105 120 μg/ml, day 7
  formation of sprouts by ECs: reduction in the formation of the sprouts; also recorded: significantly reduced sprouting
[1]; TRC105, co-culture assay
  surface area covered by ECs: significantly reduced

B3: TGFβ3: growth factor TGFβ3 (Peprotech), transforming growth factor β ligand (protein, UniProt P10600 301-412, looked up)
Transforming growth factor …: ALDTNYCFRNLEENCCVRPLYIDFRQDLGWKWVHEPKGYYANFCSGPCPYLRSADTTHSTVLGLYNTLNPEASASPCCVPQDLEPLTILYYVGRTPKVEQLSNMVVKSCKCS
modifications: Transforming growth factor beta-3
notes: growth factor TGFβ3 (Peprotech), transforming growth factor β ligand
[3]
  up-regulation of vSMC contractile markers: up-regulation of vSMC markers
[2]
  formation of endothelial sprouts: inhibits sprout formation in all lines
[2]; listed as TGFβ
  formation of endothelial sprouts: inhibited formation of the endothelial sprouts; also recorded: inhibited endothelial network formation
[1]; day 7
  formation of vascular/endothelial sprouts: dramatic reduction in the formation of the vascular sprouts; also recorded: inhibits sprout formation in all lines
[1]; day 7, listed as TGFβ
  formation of vascular/endothelial sprouts: inhibited endothelial network formation

B4: Activin: growth factor ActivinA (Miltenyi), 25 ng/ml in mesoderm induction medium (protein, UniProt P08476 311-426, looked up)
Inhibin beta A chain: GLECDGKVNICCKKQFFVSFKDIGWNDWIIAPSGYHANYCEGECPSHIAGTSGSSLSFHSTVINHYRMRGHSPFANLKSCCVPTKLRPMSMLYYDDGQNIIKKDIQNMIVEECGCS
modifications: Inhibin beta A chain
hPSCs
  robustness and reproducibility of differentiation: more robust and reproducible differentiation
